Conditions: Homo sapiens; pH 7.4; Thermal; DSC; Hepes 20 mM; NaCl 200 mM; transition: 2; reversible: No; whole UniProt chain shown

B1: Alanine--glyoxylate aminotransferase wild type, P21549 (protein)
chain: MASHKLLVTPPKALLKPLSIPNQLLLGPGPSNLPPRIMAAGGLQMIGSMSKDMYQIMDEIKEGIQYVFQTRNPLTLVISGSGHCALEAALVNVLEPGDSFLVGANGIWGQRAVDIGERIGARVHPMTKDPGGHYTLQEVEEGLAQHKPVLLFLTHGESSTGVLQPLDGFGELCHRYKCLLLVDSVASLGGTPLYMDRQGIDILYSGSQKALNAPPGTSLISFSDKAKKKMYSRKTKPFSFYLDIKWLANFWGCDDQPRMYHHTIPVISLYSLRESLALIAEQGLENSWRQHREAAAYLHGRLQALGLQLFVKDPALRLPTVTTVAVPAGYDWRDIVSYVIDHFDIEIMGGLGPSTGKVLRIGLLGCNATRENVDRVTEALRAALQHCPKKKL
**Q.** What does the source list for B1?
**A.** Tm: 82.1 °C; unfolding enthalpy (calorimetric): 547 kcal/mol
